Test results published in the supplement of paper PMC9170038.

Each sequence was assayed on MS2 coat protein (assay: apparent KD of MS2 coat protein; higher = weaker reporter binding). Settings: Eterna round: R107; input ligand: theophylline 20 uM.
Procedure: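 RNA-MaP round R107: designed RNA switches with theophylline, tryptophan, arginine or FMN aptamers are transcribed on-chip within common flanks. They are titrated with SNAP-549-labelled MS2 coat protein in RNA-MaP buffer (100 mM Tris pH 7.5, 80 mM KCl, 4 mM MgCl2), without ligand or with the indicated ligand. Median apparent KD per design.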

In order of falling “apparent KD of MS2 coat protein” value:
1. GCACCAGGUACGGAUACCAGCUGCCACGGUUACAUGAGGAUCACCCAUGUGAUAAGGUGUAGCCCUUGGCAGCUGUACCUGGUGC [SSThB NP+V+V2 #7 +-Same Structure]  500 nM
2. AGUACUCGAACGGAUACCAGCCGGACAUGAGGAUCACCCAUGUCCUACCAAUGUUCGGUUGGCCCUUGGCAGCCGUUCGUGUACA [Omei Theo B SS A v5]  404 nM
3. GGCACCAGGAGAAGGAGCGUGAAGACAUGAGGAUCACCCAUGUAGAGGCCCGGACAGGGUUCGCAGGUAGGUCGCUCCUGGUGCC [#1 Same State - Arginine B Attempt #10 (HarryS)]  245 nM
4. UCCGCGGAGACGGCCGCCACUGAGUGAGAAGUCGUGCUCUAACUACAUGAGGAUCACCCAUGUCCCAGGACCGGGUCGAAGUGUU [theeternabot_sameState_MS2_Trp_B_36]  235 nM
5. ACAUGAGGAUCACCCAUGUCUGCCACUGAUACCAGCGGAAGAAAACGCCCUUGGCAGCAGAACAUGAGGAUCACCCAUGUAGGCU [Same State Theophylline A GF29]  166 nM
6. GCUAGUGGCAGAAGGAGCGAGGCGACAUACGGGUACAUGAGGAUCACCCAUGUGGUGUGUCCUCAGGUAGGUCGCUGCCACUAGC [SSAB NP+V+V2 #12]  152 nM
7. ACAUGAGGAUCACCCAUGUCACGGCACGAUACCAGCUGAUCCGGUGGCCCUUGGCAGCGUGACGUUUGGUCCCGCGGAUGACACG [ppmullin]  142 nM
8. GGGUCGGGCGCGGCCGCCACUGCGGUGGUGUGACAUGAGGAUCACCCAUGUUGUCAUGCGGCCCUUAGGACCGGGCGCCCGGCCC [#1 Exclusion - Tryptophan B Attempt #11 (HarryS)]  67.4 nM
9. GGACUAACCAGAAGGAGCGACACAAAGCAGAAACUGCAUCCUCCGCACGAGGAUCACCCGUGUCAGGUAGGUCGCUGGUUAGUCG [ArgBX 28]  57 nM
10. GUACACUAGUCGGCCGCCACUGUUACAUGAGGAUCACCCAUGUAGGAUCACCCAUGACAUGAGGAUAGGACCGGGACGCAUGAGG [Exclusion Tryptophan B]  56.1 nM
11. CACGAAAGAUCGGCCGCCACUAAUCUAUGUGUUCUUUCACAUGAGGAUCACCCAUGUUCUUGCGUUAGGACCGGGAUUGAGCGUG [#02 Exclusion Tryptophan B]  39.7 nM
12. UGACAUUGCUCAGAUACCAGACAUGAGGAUCACCCAUGUACCAAGGUAAGAAAAUAACAUGUCCCUUGGCAGCUGAGCAAUGUCU [First try #MS2Left #Theo2]  38.4 nM
13. AGAGGUGCAACAGAUACCAGUCUACCGUACCUCAGAGAACAUGAGGAUCACCCAUGUAUAGACCCUUGGCAGCUGAUGUUAUUCA [Theo B Ex t3]  36.7 nM
14. GGUAUGUAUUCGGAAACGAAUGCAUACCAACGAGGACCGGUACGGCCGCCACUCGCGGCUGAUCAACAUGAGGAUCACCCAUGUA [Ex Tryptophan A 4]  33 nM
15. AAAGGUAGCAAUAAAUCUCCUACAUGUGAAGGAGCGCCCGAAAGGGCAGGUAGGUCGCACAUGAGGAUCACCCAUGUGAGCUACC [ArgEX 5 #SwitchBubble]  20.9 nM
16. UCUUUCUAUGUAGAUACCAGCAUGUUAUAUUUCUAAUGACAUGAGGAUCACCCAUGUAAAUGCCCUUGGCAGCUGCGUUUUCUUU [SSTHB #5]  20.2 nM
17. GGACUAACCAGAAGGAGCGACGCGCAGAAACUGCAAUUUCCUCCACACGAGGAUCACCCGUGUCAGGUAGGUCGCUGGUUAGUCG  18.7 nM
18. AAAGAUACCAGAGAUACCAGCCAAAAUUAAAAUAAAACCUCACAUGAGGAUCACCCAUGUGGCCCUUGGCAGCUCCCUUGGCAGC [#DoubbleAptamer 1]  15.5 nM
19. AAUGUAUGGCACAUGAGGAUCACCCAUGUGCGAGGACCGGUACGGCCGCCACUCGGUCCUGGGAUCUUACCACUAUACAUUAAUG [XTryp A #21]  14.8 nM

Same assay, conditions: Eterna round: R107; input ligand: theophylline 2 mM

In order of rising “apparent KD of MS2 coat protein” value:
1. AAUGUAUGGCACAUGAGGAUCACCCAUGUGCGAGGACCGGUACGGCCGCCACUCGGUCCUGGGAUCUUACCACUAUACAUUAAUG [XTryp A #21]  11.3 nM
2. AAAUAAAUACAUGAGGAUCACCCAUGUGAAGGAGCGCGCGUUAGCGCAGGUAGGUCGCACAUGAAAGGGAAGCGAAAGAAAUAAU [MAT - Exclusion Arginine A - Mod of Eli - D16]  24.3 nM
3. UUCAGCUAGUCGGCCGCCACUACUUGAGGAUCACCCAGGUAAUCCUAACACUGCUUCGGCAGUGGUAGGACCGGGACUAGCUGAG  24.5 nM
4. GGGCCCGGGCCCGAUACCAGCAGAGAAAACAUAUAUCCUAACAUGAGGAUCACCCAUGUAUGCCCUUGGCAGCGGGCCCGGGCCC [#15 Exclusion-TheophyllineB]  33.2 nM
5. GGGCGUGUGGCGCGGCGUGCUCCGCUCCGUCGAGGACCGGUACGGCCGCCACUCGACAUGAGGAUCACCCAUGUGCGAGCUCGCG [#1 Exclusion - Tryptophan A Attempt #11 (HarryS)]  44.6 nM
6. GGCUGUCAUAGGAGGUCAAAUAUACUCGAAGGAGCGUCAUAGUAGGCAGGUAGGUCGCGAGACAUGAGGAUCACCCAUGUAGAGA [xkxmullin]  52.9 nM
7. GGGUCGGGCGCGGCCGCCACUGCGGUGGUGUGACAUGAGGAUCACCCAUGUUGUCAUGCGGCCCUUAGGACCGGGCGCCCGGCCC [#1 Exclusion - Tryptophan B Attempt #11 (HarryS)]  70.1 nM
8. GGGUGCGGCACGGCCGCCACUGCGGUGGUGUGACAUGAGGAUCACCCAUGUUGUCAUGCGGCCCUUAGGACCGGGUGGCGUGCCU [#1 Exclusion - Tryptophan B Attempt #15 (HarryS)]  89.5 nM
9. UUCUUUAAGUCGGCCGCCACUGAAACAUGAGGAUCACCCAUGUAUAUUUGGGUAUAGGUGGAUUACAGGACCGGGACUAUAGUAA [JR_ExcTryptoB_Sub022]  104 nM
10. GGCACCAGGAGAAGGAGCGUGAAGACAUGAGGAUCACCCAUGUAGAGGCCCGGACAGGGUUCGCAGGUAGGUCGCUCCUGGUGCC [#1 Same State - Arginine B Attempt #10 (HarryS)]  122 nM
11. GCUAGUGGCAGAAGGAGCGAGGCGACAUACGGGUACAUGAGGAUCACCCAUGUGGUGUGUCCUCAGGUAGGUCGCUGCCACUAGC [SSAB NP+V+V2 #12]  145 nM
12. AACAACAAGGGAAGGAGCGCGAAUUAUAGACAUGAGGAUCACCCAUGUAACAUGGGAUUAACGCAGGUAGGUCGCCCACAAACAA [#08 Exclusion - Arginine B]  177 nM
13. GGGCAAGAGGGAAGGAGCGUCGGCUGAGUAACAUGAGGAUCACCCAUGUAGCACAUGGUGUGGCAGGUAGGUCGCCCUCUGCCCU [SS-ArgB8]  178 nM
14. UCCGCGGAGACGGCCGCCACUGAGUGAGAAGUCGUGCUCUAACUACAUGAGGAUCACCCAUGUCCCAGGACCGGGUCGAAGUGUU [theeternabot_sameState_MS2_Trp_B_36]  208 nM
15. AGAGUUAGACAAAAGUCUAGCUCACCAGAAGGAGCGUCCGAAAGGACAGGUAGGUCGCUGGUACCUGAGGAUCACCCGGGUUCCU [ArgAS 17 #OpenEnded #AlternativeMS2]  244 nM
16. GUCCUCGACACGGCCGCCACUGGCUCGCCUGUUGGCGCCGACCCACAUGAGGAUCACCCAUGUUCCAGGACCGGGUGUCACAGCA [theeternabot_sameState_MS2_Trp_B_42]  311 nM
17. CUUGGCUGUGCGGCCGCCACUGGCUCAUCCUGCAUUACAUGAGGAUCACCCAUGUUGCGGCCUCCCAGGACCGGGCAUAGCCUGA [Usesties]  684 nM
18. GACCCAUGAGUUGCAAAAGCUCAUGGGUCGCGAGGACCGGUACGGCCGCCACUCGGCUGUACAUGAGGAUCACCCAUGUCAGGGU [#1 Same State - Tryptophan A Attempt #26 (HarryS)]  845 nM
